In US20150125454A1 (Daiichi Sankyo, published 2015):

Molecular target: human FGFR2 IIIc variant protein (isoform 1: NP-000132) (human, UniProt P21802 22-821)
Experiment: flow cytometry (MFI) on transfected HEK293T cells, hybridoma supernatant; non-binding implied by 'selectively', values only in FIG. 1
Description: Each human FGFR expression vector constructed in Examples 1)-3-1 and 2)-1-1 was transfected to HEK293T cells by the method shown in Example 1)-5-1. The cell suspension was centrifuged to remove the supernatant. Then, these various human FGFR expression vector-transfected HEK293T cells and the pcDNA-DEST40-transfected HEK293T cells were separately suspended by the addition of the hybridoma culture supernatant containing the FR2-10, FR2-13, or FR2-14 antibody and left standing at 4° C. for 1 hour. The cells were washed twice with PBS containing 5% FBS, then suspended by the addition of Anti-Rat IgG FITC conjugate (manufactured by Sigma-Aldrich Corp.) diluted 320-fold with PBS containing 5% FBS, and left standing at 4° C. for 1 hour. The cells were washed 3 times with PBS containing 5% FBS and then resuspended in PBS containing 5% FBS and 2 μg/ml 7-aminoactinomycin D (manufactured by Molecular Probes, Inc.), followed by detection using a flow cytometer (FC500; manufactured by Beckman Coulter Inc.). The data was analyzed using Flowjo (manufactured by Tree Star Inc.). After removal of 7-aminoactinomycin D-positive dead cells by gating, the FITC fluorescence intensity of live cells was plotted to a histogram to calculate average fluorescence intensity (MFI).

Chain of human FGFR2 IIIc variant protein (isoform 1: NP-000132) (P21802 22-821 limits assumed, change not shown): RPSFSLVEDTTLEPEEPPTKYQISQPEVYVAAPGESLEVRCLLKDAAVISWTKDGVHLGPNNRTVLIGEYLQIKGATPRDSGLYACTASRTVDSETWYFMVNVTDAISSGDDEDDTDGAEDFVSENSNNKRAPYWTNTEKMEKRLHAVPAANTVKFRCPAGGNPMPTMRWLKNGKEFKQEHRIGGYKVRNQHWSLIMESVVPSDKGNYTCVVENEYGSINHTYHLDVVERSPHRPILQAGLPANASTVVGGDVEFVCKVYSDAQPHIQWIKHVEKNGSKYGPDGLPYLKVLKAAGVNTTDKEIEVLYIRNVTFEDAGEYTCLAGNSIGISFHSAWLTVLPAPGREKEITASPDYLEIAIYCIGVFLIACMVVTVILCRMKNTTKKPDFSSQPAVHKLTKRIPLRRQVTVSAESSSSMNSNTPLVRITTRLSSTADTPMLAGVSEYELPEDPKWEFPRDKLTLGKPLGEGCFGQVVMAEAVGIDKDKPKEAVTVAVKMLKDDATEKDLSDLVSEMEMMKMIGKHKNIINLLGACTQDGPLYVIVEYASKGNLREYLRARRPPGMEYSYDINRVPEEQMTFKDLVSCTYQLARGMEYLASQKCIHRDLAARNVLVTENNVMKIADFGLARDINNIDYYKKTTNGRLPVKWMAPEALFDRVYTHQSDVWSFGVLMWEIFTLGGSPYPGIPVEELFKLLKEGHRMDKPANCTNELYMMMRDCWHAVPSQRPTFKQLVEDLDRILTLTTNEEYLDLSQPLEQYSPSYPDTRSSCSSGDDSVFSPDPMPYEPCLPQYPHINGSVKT

binding result: no binding
B1: rat anti-FGFR2 antibody FR2-10 (antibody, IgG2a, V domains shown)
VH: EVQLVESGGGLVQPGRSLKLSCVASGFRFNDFWMTWIRQAPGKGLEWVASITYTGDNTYYAGSVKGRITISRDNAKSTLYLQMNSLRSEDTATYYCTRDDYGGYSPYYMDAWGQGTSVTVSS
VL: DIQMTQSPSSLSAFLGDRVTITCRASQDIGNYLRWFQQKPGKSPRLMIYGATNLANGVPSRFSGSRSGSDYSLTINNLESEDMAIYYCLKHNEYPFTFGSGTKLEIKR
notes: Used as hybridoma culture supernatant in flow cytometry and as antibody purified from ascites elsewhere; also called rat FR2-10 antibody
